The subject of series [1] is SD rats. In words: Rat arterio-venous shunt thrombus formation model. In kind it is in vivo. Particulars: 100 U·kg^−1 i.v. The protocol: 50 SPF grade male SD rats (provided by the laboratory animal center of Guangdong Medical College, 300-350 g body weight) were randomly divided into saline control group, positive control group (100 U·kg^−1 heparin sodium, Shanghai No. 1 Biochemical & Pharmaceutical Co. Ltd), and rNAPT-1 low dose (100 μg·kg^−1), middle dose (1 mg·kg^−1), high dose group (5 mg·kg^−1), 10 rats each group, respectively. These rats were anaesthetized with 10% chloral hydrate (250 mg/kg) by intraperitoneal injection. The right common carotid artery and left external jugular vein was exposed and dissected bluntly from the surrounding tissue after a surgical incision. One end of a polyethylene pipe (1.5 mm of diameter, 22 cm of length) with a 5 cm length of No. 4 operation suture in it and filled with 50 U/mL heparin solution was inserted into the right common carotid artery, and the other end was inserted into the left external […] vein. 5 min after tail intravenous injection of drugs, the artery clamp was opened, and blood flow from the right common carotid artery to the left external jugular vein through the polyethylene pipe. After 15 min of blood flow, the suture line was quickly removed and weighed. The net weight of thrombus is total weight minus suture weight; inhibition rate=(wet weight of thrombus of saline control group−wet weight of thrombus of administration group)/wet weight of thrombus of saline control group×100%.

For series [2], the target named is T1, human fIIa (thrombin) (Homo sapiens, UniProt P00734).
T1 construct: Human coagulation factors IIa (thrombin), Xa, XIa, XIIa, EGR-fXa; purchased Haematologic Technologies Inc (United States)
In words: Chromogenic assay, fIIa (thrombin). In kind it is biochemical. The text has this: (§1) The recombinant anticoagulant polypeptides in the present invention were expressed in E. coli and purified in our laboratory, of which the activities against coagulation factors were investigated by chromogenic assays. Human coagulation factors IIa (thrombin), Xa, XIa, XIIa, EGR-fXa were products of Haematologic Technologies Inc (United States). Recombinant fVIIa was products of Novo-Nordisk (Denmark). Recombinant soluble tissue factor (sTF) was purchased from Protgen (Beijing, China). The following chromogenic substrates were used for these coagulation factor assays: S2765 for human fXa, S2288 for human fVIIa and fIIa, 52366 for human fXIa and fXIIa, respectively.
(§2) The chromogenic assays were carried out in a total reaction volume of 100 μl in individual wells of a 96-well microtiter plate. 50 μl fIIa, fXa, fXIa, or fXIIa (final concentration: 1 nM) was incubated with 10 μl recombinant anticoagulant polypeptide at various concentrations (or PBS control group) Assays for the detection activity of fVIIa: 50 μl fVIIa+TF (1 μM) and EGR-fXa (final concentration 500 nM) was incubated for 15 mins at 25° C., respectively. After the addition of 40 μl of prewarmed chromogenic substrate to a final concentration of 400 μM, the changes of absorbance at 405 nm were monitored by using an E1x808 kinetic microtiter reader. The data were used to calculate the velocities of response.

Series [3] has as its system normal human plasma. In words: aPTT assay in normal human plasma. In kind it is biochemical. Particulars: for prolongation of aPTT (in words): 100 nM and 500 nM; for aPTT: normal human plasma; for multiples of prolonging aPTT: ratio of mean aPTT to blank control. The protocol:
(§3) The recombinant anticoagulant polypeptides were expressed in Escherichia coli and purified in our laboratory. Anticoagulant activity was determined by measuring the aPTT and PT.
For the aPTT assay, 10 μl recombinant protein at various concentrations was mixed with 50 μl fresh normal human plasma, 20 μl aPTT reagent (MDC Hemostasis, Germany) and incubated for 15 mins at 37° C. 20 μl 0.05 mol/L prewarmed CaCl2 was then added to initiate the clotting reaction. The clotting time was measured with the absorbance at 630 nm by using an E1x808 kinetic microtiter reader (BioTek, United States). Each concentration was repeated 3 times. The ratio of the mean aPTT value of each concentration to blank control group is multiples of prolonging the aPTT.

Series [4] deals with T2, human fXIa (Homo sapiens, UniProt P03951).
T2 construct: Human coagulation factors IIa (thrombin), Xa, XIa, XIIa, EGR-fXa; purchased Haematologic Technologies Inc (United States)
T2 sequence (P03951 19-387 limits assumed): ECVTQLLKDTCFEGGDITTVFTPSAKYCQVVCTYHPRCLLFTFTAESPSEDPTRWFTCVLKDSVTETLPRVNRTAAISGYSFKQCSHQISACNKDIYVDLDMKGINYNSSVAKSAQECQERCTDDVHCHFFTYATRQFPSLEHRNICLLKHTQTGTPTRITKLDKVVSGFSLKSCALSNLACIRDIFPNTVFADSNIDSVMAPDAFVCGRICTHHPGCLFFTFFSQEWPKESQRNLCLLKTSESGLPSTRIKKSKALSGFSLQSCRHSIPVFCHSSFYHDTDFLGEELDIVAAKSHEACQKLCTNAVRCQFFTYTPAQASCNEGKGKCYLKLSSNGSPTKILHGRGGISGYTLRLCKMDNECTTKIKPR
T2 sequence (P03951 388-625 limits assumed): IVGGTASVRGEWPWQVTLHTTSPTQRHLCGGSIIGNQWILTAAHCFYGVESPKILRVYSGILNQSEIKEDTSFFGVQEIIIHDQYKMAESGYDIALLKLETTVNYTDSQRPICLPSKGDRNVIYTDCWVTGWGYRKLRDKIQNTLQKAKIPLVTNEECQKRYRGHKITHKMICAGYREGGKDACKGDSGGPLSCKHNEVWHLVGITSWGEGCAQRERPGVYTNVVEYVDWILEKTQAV
In words: Chromogenic assay, fXIa. In kind it is biochemical. Particulars: for inhibition of the activity of fXIa: 100 nM; for inhibition of the activity of fXIa (in words): 200 nM.
Excerpt: as §1, §2

Series [5] addresses T3, human fXIIa (Homo sapiens, UniProt P00748).
T3 construct: Human coagulation factors IIa (thrombin), Xa, XIa, XIIa, EGR-fXa; purchased Haematologic Technologies Inc (United States)
T3 sequence (P00748 373-615 limits assumed): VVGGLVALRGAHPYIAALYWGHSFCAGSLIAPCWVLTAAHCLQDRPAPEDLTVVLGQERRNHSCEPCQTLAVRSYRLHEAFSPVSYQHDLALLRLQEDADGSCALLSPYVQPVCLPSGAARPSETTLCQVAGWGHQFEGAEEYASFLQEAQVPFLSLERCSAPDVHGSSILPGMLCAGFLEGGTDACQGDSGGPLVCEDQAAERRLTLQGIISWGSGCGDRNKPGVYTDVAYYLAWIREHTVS
T3 sequence (P00748 20-372 limits assumed): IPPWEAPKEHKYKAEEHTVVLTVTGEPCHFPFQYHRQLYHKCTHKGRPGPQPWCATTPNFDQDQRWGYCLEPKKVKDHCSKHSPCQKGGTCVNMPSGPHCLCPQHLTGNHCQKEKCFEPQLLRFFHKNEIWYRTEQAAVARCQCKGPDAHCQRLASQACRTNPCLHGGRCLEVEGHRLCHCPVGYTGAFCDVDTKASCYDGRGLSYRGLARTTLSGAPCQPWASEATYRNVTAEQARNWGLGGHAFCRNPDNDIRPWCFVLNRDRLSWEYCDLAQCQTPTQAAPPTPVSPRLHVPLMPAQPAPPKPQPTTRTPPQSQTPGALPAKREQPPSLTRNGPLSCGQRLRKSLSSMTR
Kind of series: Chromogenic assay, fXIIa. In kind it is biochemical.
Excerpt: as §1, §2

Series [6] has as its system BALb/c mice. In words: Mouse tail bleeding time. In kind it is in vivo. The note with it: tail transected after 10 min. On the procedure:
After 10 min, the distal tip 1.5 mm of the mouse tail was transected and the blood oozed was soaked with filter paper very 30 seconds until the bleeding stops. The bleeding time was defined as the time elapsed from the tail transection to the stoppage of bleeding.

For series [7], the system named is normal human plasma. In words: PT assay in normal human plasma. In kind it is biochemical. The note with it: for prolongation of PT (in words): 100 nM and 500 nM; for PT: normal human plasma. On the procedure: as §3
For the PT assay, 10 μl recombinant protein at various concentration was mixed with 45 μl normal human plasma and incubated for 15 mins at 37° C. 45 μl prewarmed PT reagent (MDC Hemostasis, Germany) was then added and the clotting time was measured with the absorbance at 630 nm by using an E1x808 kinetic microtiter reader (BioTek, United States). Each concentration was repeated 3 times.

Series [8] deals with T4, human fXa (Homo sapiens, UniProt P00742).
T4 construct: Human coagulation factors IIa (thrombin), Xa, XIa, XIIa, EGR-fXa; purchased Haematologic Technologies Inc (United States)
T4 sequence (P00742 41-179 limits assumed): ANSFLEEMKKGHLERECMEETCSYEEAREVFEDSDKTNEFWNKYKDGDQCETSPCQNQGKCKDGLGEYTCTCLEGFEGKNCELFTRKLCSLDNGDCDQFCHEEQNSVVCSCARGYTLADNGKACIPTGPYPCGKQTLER
T4 sequence (P00742 235-488 limits assumed): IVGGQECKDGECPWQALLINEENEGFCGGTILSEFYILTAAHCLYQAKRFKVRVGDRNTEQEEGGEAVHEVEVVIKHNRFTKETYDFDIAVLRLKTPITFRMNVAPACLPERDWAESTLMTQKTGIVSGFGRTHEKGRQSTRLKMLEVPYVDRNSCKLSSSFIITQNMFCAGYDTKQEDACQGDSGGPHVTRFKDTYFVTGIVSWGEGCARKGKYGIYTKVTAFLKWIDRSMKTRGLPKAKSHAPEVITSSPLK
Kind of series: Chromogenic assay, fXa. In kind it is biochemical.
Excerpt: as §1, §2

The target of series [9] is T5, fVIIa/TF (Homo sapiens, UniProt P08709).
T5 construct: Recombinant fVIIa was products of Novo-Nordisk (Denmark); purchased Novo-Nordisk (Denmark) for fVIIa; Protgen (Beijing, China) for sTF; Haematologic Technologies Inc for EGR-fXa
T5 sequence (P08709 61-212 limits assumed): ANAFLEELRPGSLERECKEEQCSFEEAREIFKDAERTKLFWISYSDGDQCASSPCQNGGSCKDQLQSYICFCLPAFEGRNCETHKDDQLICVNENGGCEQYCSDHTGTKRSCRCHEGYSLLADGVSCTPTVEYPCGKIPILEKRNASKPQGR
T5 sequence (P08709 213-466 limits assumed): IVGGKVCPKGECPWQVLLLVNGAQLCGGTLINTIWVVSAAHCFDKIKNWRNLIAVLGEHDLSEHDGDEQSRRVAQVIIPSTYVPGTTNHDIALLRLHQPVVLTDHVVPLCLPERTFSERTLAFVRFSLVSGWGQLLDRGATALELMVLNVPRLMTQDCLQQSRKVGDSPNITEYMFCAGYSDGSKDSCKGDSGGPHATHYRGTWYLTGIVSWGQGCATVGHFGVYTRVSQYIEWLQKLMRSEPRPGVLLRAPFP
T5 sequence (P13726 33-251 partner limits assumed): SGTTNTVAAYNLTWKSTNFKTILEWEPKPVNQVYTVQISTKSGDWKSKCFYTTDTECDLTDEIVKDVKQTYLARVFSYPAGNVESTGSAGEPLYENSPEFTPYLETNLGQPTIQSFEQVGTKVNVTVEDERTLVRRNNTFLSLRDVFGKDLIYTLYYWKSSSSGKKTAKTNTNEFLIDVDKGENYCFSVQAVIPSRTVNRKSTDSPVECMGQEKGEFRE
Kind of series: Chromogenic assay, fVIIa/TF. In kind it is biochemical.
Excerpt: as §1, §2

heparin sodium [reference compound]: the “wet weight of thrombus” value in series [1] was determined as 14.2 ± 3.6 mg. The Inhibition rate % in [1] (vs saline control) is 74.3%.

B1: NAPTin-7 (protein)
chain: NPSCGENERHDECSRKECDPKCKYDGTEEKDDEKPVVCLTRVCYGDCICRDGFLRNKNGACVKAEDC
modifications: Sequence derived from Ancylostoma caninum or Synthetic
Take B1: the “effect on fIIa activity (in words)” value in [2] (100 nM) and in series [2] (200 nM) was “without affecting” each time. In addition, the “prolongation of aPTT (in words)” value in series [3] is given as “significantly prolong aPTT”. The “aPTT” value stood at 78.7 ± 8.1 s in series [3] (100 nM) and 218.3 ± 5.9 s in series [3] (500 nM). Further, the figures for the “multiples of prolonging aPTT” value in [3] (100 nM) and in series [3] (500 nM) were 1.96 and 5.44, respectively. Moreover, the “inhibition of the activity of fXIa” value in series [4] was “more than 90%”. Further, the “inhibition of the activity of fXIa (in words)” value (from here on “inhibition … (in words)”) in [4] was “almost completely inhibited”. For the same molecule, the “effect on fXIIa activity (in words)” value in series [5] (100 nM) and in [5] (200 nM) was “without affecting” each time. In addition, the “Bleeding time” value in series [6] (100 μg·kg^−1 tail vein) amounted to 8.30 ± 2.0 min; in [6] (1 mg·kg^−1 tail vein) it was 8.26 ± 1.9 min; in [6] (5 mg·kg^−1 tail vein), 8.31 ± 2.2 min. The “prolongation of PT (in words)” value in [7] is on record as “couldn't prolong PT”. Further, the “PT” value in series [7] (100 nM) amounted to 11.7 ± 0.5 s; in [7] (500 nM), 12.7 ± 0.4 s. Further, the “effect on fXa activity (in words)” value in [8] (100 nM) and in [8] (200 nM) was “without affecting” each time. For the same molecule, the “effect on fVIIa/TF activity (in words)” value in series [9] (100 nM) and in [9] (200 nM) was “without affecting” each time.

B2: NAPTin-3 (protein)
chain: NPSCGENERHDECSRKECDPKCKYDGTEEKDDEKPVVCLTRVCYGDCICRDGFLRNKNGACVKAEDCELDNM
modifications: Sequence derived from Ancylostoma caninum or Synthetic
Consider B2, for which the “effect on fIIa activity (in words)” value in series [2] (100 nM) and in [2] (200 nM) was “without affecting” throughout. The “prolongation of aPTT (in words)” value in [3] was “significantly prolong aPTT”. The “aPTT” value turned out to be 83.0 ± 1.2 s in [3] (100 nM) and 219.3 ± 6.2 s in series [3] (500 nM). For the same molecule, the “multiples of prolonging aPTT” value is 2.07 in series [3] (100 nM) and 5.47 in series [3] (500 nM). Further, the “inhibition of the activity of fXIa” value in series [4] is reported as “more than 90%”. Further, the “inhibition … (in words)” value in series [4] was “almost completely inhibited”. Further, the “effect on fXIIa activity (in words)” value in [5] (100 nM) and in series [5] (200 nM) was “without affecting” in each case. For the same molecule, the entries for the “Bleeding time” value in series [6] (100 μg·kg^−1 tail vein), in series [6] (1 mg·kg^−1 tail vein) and in series [6] (5 mg·kg^−1 tail vein) were 8.38 ± 1.3 min, 8.29 ± 2.5 min and 8.32 ± 1.8 min, respectively. Further, the “prolongation of PT (in words)” value in [7] is listed as “couldn't prolong PT”. For the same molecule, the “PT” value in series [7] (100 nM) was 13.5 ± 0.4 s; in series [7] (500 nM), 12.3 ± 0.8 s. The “effect on fXa activity (in words)” value in series [8] (100 nM) and in series [8] (200 nM) was “without affecting” throughout. Besides, the “effect on fVIIa/TF activity (in words)” value in series [9] (100 nM) and in series [9] (200 nM) was “without affecting” in each case.

B3: NAPTin-5 (protein)
chain: NPSCGENERHDECSRKECDPKCKYDGTEEKDDEKPVVCLTRVCYGDCICRDGFLRNKNGACVKAEDCEL
modifications: Sequence derived from Ancylostoma caninum or Synthetic
B3: the “effect on fIIa activity (in words)” value in [2] (100 nM) and in series [2] (200 nM) was “without affecting” throughout. The “prolongation of aPTT (in words)” value in series [3] is given as “significantly prolong aPTT”. Also, the figures for the “aPTT” value in series [3] (100 nM) and in series [3] (500 nM) were 77.9 ± 2.9 s and 226.8 ± 6.6 s, respectively. Moreover, the results for the “multiples of prolonging aPTT” value in [3] (100 nM) and in [3] (500 nM) were 1.94 and 5.66, respectively. Moreover, in series [4], the “inhibition of the activity of fXIa” value is “more than 90%”. The “inhibition … (in words)” value in series [4] is “almost completely inhibited”. The “effect on fXIIa activity (in words)” value in series [5] (100 nM) and in series [5] (200 nM) was “without affecting” throughout. Moreover, the “Bleeding time” value in series [6] (100 μg·kg^−1 tail vein) is recorded as 8.30 ± 2.3 min; in [6] (1 mg·kg^−1 tail vein), 8.31 ± 1.0 min; in series [6] (5 mg·kg^−1 tail vein), 8.33 ± 2.4 min. Moreover, in [7], the “prolongation of PT (in words)” value is “couldn't prolong PT”. Moreover, the “PT” value in series [7] (100 nM) was determined as 12.2 ± 0.6 s; in series [7] (500 nM) it was 12.6 ± 0.4 s. Besides, the “effect on fXa activity (in words)” value in series [8] (100 nM) and in series [8] (200 nM) was “without affecting” throughout. The “effect on fVIIa/TF activity (in words)” value in series [9] (100 nM) and in series [9] (200 nM) was “without affecting” throughout.
